Blank lines part the entries; values can stand above or below the binder they belong to.
Tests used:
[1] = target: T1, Human TSLPR fragment 67-336 (human, UniProt Q9HC73); assay: ELISA of antibody 1D6.C9 on human TSLPR fragments (OD650); hFc bars as control for the fragment
T1 construct: extracellular domain fragment; also called 67 (23) to 336 (112)
T1 sequence (receptor fragment, looked up): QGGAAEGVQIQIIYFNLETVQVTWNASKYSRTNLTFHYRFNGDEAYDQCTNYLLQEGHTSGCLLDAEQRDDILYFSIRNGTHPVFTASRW

[2] = target: T2, Human TSLPR fragment 67-174 (human, UniProt Q9HC73); assay: as above
T2 construct: extracellular domain fragment; also called 67 (23) to 174 (58)
T2 receptor fragment (looked up): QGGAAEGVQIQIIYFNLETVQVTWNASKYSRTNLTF

[3] = target: T3, Human TSLPR (human, UniProt Q9HC73 23-231, limits assumed); assay: ForteBio, solution binding kinetics
T3 construct: also called hTSLPR; human thymic stromal lymphopoietin receptor
T3 sequence (looked up): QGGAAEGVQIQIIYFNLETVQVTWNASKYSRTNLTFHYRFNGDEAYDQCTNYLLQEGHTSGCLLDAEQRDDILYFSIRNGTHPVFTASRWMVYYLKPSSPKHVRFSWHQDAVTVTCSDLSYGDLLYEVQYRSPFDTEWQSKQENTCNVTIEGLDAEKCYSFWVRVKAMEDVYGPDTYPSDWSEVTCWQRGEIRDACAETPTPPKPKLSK

[4] = target: T3, Human TSLPR; assay: Biacore surface plasmon resonance
[5] = target: T4, Human TSLPR on the cell surface (Ba/F3/hTSLPR/hIL7Rα cells, Ba/F3/hTSLPR/hIL7Rα/Stat5-Luc cells, human … (human, UniProt Q9HC73 23-371)); assay: cell-based or functional assay
T4 sequence (looked up): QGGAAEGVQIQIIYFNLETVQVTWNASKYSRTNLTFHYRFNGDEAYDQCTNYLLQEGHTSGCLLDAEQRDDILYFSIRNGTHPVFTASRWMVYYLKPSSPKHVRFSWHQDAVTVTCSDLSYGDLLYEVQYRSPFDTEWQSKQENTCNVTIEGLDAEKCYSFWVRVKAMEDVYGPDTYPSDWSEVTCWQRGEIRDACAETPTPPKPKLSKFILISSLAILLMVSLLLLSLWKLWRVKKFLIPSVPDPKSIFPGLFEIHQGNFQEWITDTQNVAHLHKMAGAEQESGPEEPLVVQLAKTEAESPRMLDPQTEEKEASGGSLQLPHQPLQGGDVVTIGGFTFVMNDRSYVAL

binding result [1]: no binding | binding result [2]: no binding
B1: mouse anti-hTSLPR monoclonal antibody clone 1D6.C9 (antibody, V domains shown)
VH: QIQLGQSGPELKKPGETVKISCKASGYTFTTYGMSWVKQAPGKGLQWMGWINTYSGVPRYADDFKGRFAFSLETSASTAYLQIYNLKNEDTATYFCTREGFITTVVGAAGRFVYWGQGTLVTVSA
VL: DIVMTQSHKFMSTSVGDRVSITCKASQDVGTAVAWYQQKPGQSPKLLIYWASTRHTGVPDRFTGSGSGTDFTLTLNNVQSEDLADYFCQQYSTYPTFGSGTKLELKR
notes: also called mAb 1D6.C9; mouse anti-hTSLPR antibody

Kd [3]: 51 pM | Kd [4]: 101 pM | IC50 [pM] Human TSLPR Prolif. [5]: 210 pM | IC50 [pM] Human TSLPR Prolif. (15% serum) [5]: 200 pM | IC50 [pM] Human TSLPR RGA [5]: 270 pM | IC50 [pM] Human TSLPR RGA (15% serum) [5]: 950 pM
B2: NV115-3B (Fab) (Fab, V domains shown)
VH: QVQLVQSGAEVKKPGASVKVSCKASGYTFTTYGISWLRQAPGQGLEWMGWVNTNTGNPRYAQGFTGRFVFSLDTSVSTAYLQISSLKAEDTAVYYCAREGFITTVVGAAGRFVYWGQGTLVTVSS
VL: DIQMTQSPSSLSASVGDRVTITCRASQDIHTRLAWYQQKPGQPPKLLIYWASTRASGVPDRFSGTGSGTDFTLTISSLQAEDVAVYYCQQYSTYPTFGQGTKLEIK
notes: the constant domains of the Fab are not

From patent US20120027756A1 (IRM, published 2012)
